Measured values from US20240409617A1.

What was measured:
[1] = target: B.1.1.7 Spike (SARS-CoV-2 spike protein, UK variant B.1.1.7) (SARS-CoV-2)
[2] = target: B.1.351 Spike (SARS-CoV-2 spike protein, South African variant B.1.351) (SARS-CoV-2)
[3] = target: P.1 Spike (SARS-CoV-2 spike protein, Brazilian variant P.1) (SARS-CoV-2)
[4] = target: D614G Spike (SARS-CoV-2 spike protein, D614G) (SARS-CoV-2)

Binder	Kd [1]	Response [1]	Kd [2]	Response [2]	Kd [3]	Response [3]	Kd [4]	Response [4]
Ab 31 scFv-Fc (scFv, V domains shown) VH: QVQLVQSGAEVKKPGSSVKVSCKASGGTFSSYTISWVRQAPGQGLEWMGGIIPILGTPNYAQKFQDRVAITADKSTSTAYMELSSLRSEDTAVYYCAVGSGWYSGFDYWGQGTLVTVSS VL: NFMLTQPHSVSESPGKTVTISCTGSSGSIASNYVQWYQQRPGSAPTTVIYEDSQRPSGVPDRFSGSIDSSSNSASLTISGLKTEDEADYYCQSFHNSNPVIFGGGTKLTVL	< 1 pM	0.135	< 1 pM	0.09	8.97 pM	0.0789		
Ab 38 scFv-Fc (scFv, V domains shown) VH: QVTLKESGPTLVKPTQTLTLTCTFSGFSLTTSGVSVGWIRQPPGKALEWLALIHWDDDKRYSPSLRSRLTITRDTSKNQVVLTVTDMDPADTGTYYCASFIMTVYAEYFEDWGQGTLVTVSS VL: EIVLTQSPATLSVSPGERATLSCRASQSVSSNLAWYQQKPGQAPRLLMYDVSTRATGIPARFSGSGSGTEFSLTISSLQSEDFAVYYCQQRGAWPLTFGGGTKVEIK	1.47 pM	0.267	7.62 pM	0.234	7.23 pM	0.228	3.37 pM	0.328
